What is called stoichiometry N is the number of molecules, sites or subunits per partner or assembly.

Stoichiometry N data for one substance are collected here from publication PMC8371691.

For this experiment, the target named is N-terminal(Lon)-LotP.His ('Candidatus Liberibacter asiaticus'). Nature of the experiment: SEC. For orientation: In gel filtration, larger molecules generally elute earlier.

For N-terminal(Lon)-LotP.His, the stoichiometry N is 2.
